Laboratory results from patent US11421006B2, “T cell epitopes from Cockroach and methods of making and using same” (LA JOLLA INSTITUTE FOR ALLERGY AND IMMUNOLOGY, priority 2012, dated 2022).
“Also recorded” adds a separate entry of the source.

How the values were obtained:
[1] = system: specific IgE antibody in donor sera; experiment: Serological determinations: specific IgE antibody binding by (streptavidin-)ImmunoCAP; parameters: species or system human; conditions: 34 donors
Description: Serological determinations: Sera were analyzed for specific IgE antibody binding to rBla g 1, rBla g 2, rBla g 4, rBla g 5 and rPer a 7 using allergen-coated streptavidin-ImmunoCAPs. Recombinant allergens were expressed in Pichia pastoris (rBla g 1, rBla g 2, rBla g 4, rPer a 7) or Escherichia coli (rBla g 5) and purified by affinity chromatography. Purified allergens were biotinylated and bound to streptavidin-coated ImmunoCAPs (Phadia US Inc., Portage, Mich.) at an optimized amount of 1 μg per ImmunoCAP. Specific IgE antibody binding to extracts from Blattella germanica (i6), Dermatophagoides pteronyssinus (d1) and D. farinae (d2), and total IgE antibody were also measured by ImmunoCAP analysis.

[2] = Correlation between IgE and T cell responses per donor; parameters: species or system human; conditions: for Donors with Responses to: Both: IgE and T cell
Description: The correlation between T cell responses and IgE responses was further investigated by examining for each donor which allergens were recognized by IgE and T cell responses (Table V and Table IX).

[3] = system: Bla g-specific T cells (PBMC); experiment: ELISPOT assays: IL-5, IFN-γ and IL-10 production by in vitro expanded PBMC of Cockroach-allergic donors; assay type: cell-based, human; conditions: for Donors responding (%), T cell / Donors responding, T cell (number): 34 donors; for IFN-γ SFC / IL-5 SFC / Total SFC: all peptides of the protein; for Total SFC: IL-5 plus IFN-γ; for share of the response accounted for by the allergen: discussion, PBMC responses from 30 allergic donors; for Ratio IL-5/IFNγ: per protein; for % Total Response: share of total Bla g response per protein
Description: In vitro expansion of Bla g-specific T cells: PBMC were cultured in RPMI 1640 (V Scientific, Tarzana, Calif.) supplemented with 5% human serum (Cellgro, Herndon, Va.) at a density of 2×10^6 cells/ml in 24-well plates (BD Biosciences, San Jose, Calif.) and stimulated with 25 μg/ml German Cockroach (Blatella germanica; Bla g) extract (Greer, Lenoir, N.C.), or individual peptides. […] On day 14, cells were harvested and screened for reactivity against Bla g-specific peptide pools or individual peptides. ELISPOT assays: The production of IL-5, IFN-γ, and IL-10 was analyzed in ELISPOT assays. […] Cells were then incubated at a density of 1×10^5/well either with peptide pools or individual peptides (10 μg/ml), German Cockroach extract (25 μg/ml), PHA (10 μg/ml), or medium (containing 1% DMSO corresponding to the percentage of DMSO in the pools/peptides) as a control. […] Louis, Mo.). Spots were counted by computer-assisted image analysis (Zeiss, KS-ELISPOT reader, Munich, Germany). Each assay was performed in triplicate. The level of statistical significance was determined with a Student's t-test using the mean of triplicate values of the response against relevant pools or individual peptides versus the response against the DMSO control.

| Molecule | Donors responding (%), IgE [1] [%] | Donors responding, IgE (number) [1] | Donors with Responses to: IgE Only [2] | Donors with Responses to: Neither [2] | Donors with Responses to: T Cell Only [2] | Donors with Responses to: Both [2] | T cell response pattern (IL-5 / IFN-γ), in words [3] | Donors responding (%), T cell [3] | Donors responding, T cell (number) [3] | IFN-γ SFC [3] [SFC] | IL-5 SFC [3] [SFC] | Total SFC [3] [SFC] | share of the response accounted for by the allergen [3] [%] | donors with a strong Th1 bias (ratio >5-fold) ([3]; of the 11 donors responding) | donors with a strong Th2 bias ([3]; of the 11 donors responding) | donors with balanced responses ([3]; of the 11 donors responding) | Ratio IL-5/IFNγ [3] | % Total Response [3] [%] |
| --- | --- | --- | --- | --- | --- | --- | --- | --- | --- | --- | --- | --- | --- | --- | --- | --- | --- | --- |
| Bla g 5: German Cockroach allergen Bla g 5 (protein, listed as Blattella germanica) MAPSYKLTYCPVKALGEPIRFLLSYGEKDFEDYRFQEGDWPNLKPSMPFGKTPVLEIDGKQTHQSVAISRYLGKQFGLSGKDDWENLEIDMIVDTISDFRAAIANYHYDADENSKQKKWDPLKKETIPYYTKKFDEVVKANGGYLAAGKLTWADFYFVAILDYLNHMAKEDLVANQPNLKALREKVLGLPAIKAWVAKRPPTDL | 44 | 15 | 8 | 15 | 4 | 7 | both IL-5 and IFN-γ responses were detected | 32% | 11 | 6875 | 9637 | 16512 | 65 | 3 | 3 | 5 | 1.40 | 67.7 |
| Bla g 6: German Cockroach allergen Bla g 6 (protein, listed as Blattella germanica) MADEQLQLPPEQISVLRKAFDAFDREKSGSISTNMVEEILRLMGQPFNRRTLEELIDEVDADKSGRLEFDEFVTLAAKFIIEEDSEAMEKELREAFRLYDKEGNGYIPTSCLREILRELDEQLTSDELDMMIEEIDADGSGTVDFDEFMEMMTG | – | – | – | – | – | – | clear preponderance of IL-5 | 17% | 5 | 310 | 4045 | 4355 | 20 | – | – | – | 13.0 | 17.9 |
| Bla g 7: German Cockroach allergen Bla g 7 (protein, listed as Blattella germanica) MDAIKKKMQAMKLEKDNAMDRALLCEQQARDANIRAEKAEEEARSLQKKIQQIENDLDQTMEQLMQVNAKLDEKDKALQNAESEVAALNRRIQLLEEDLERSEERLATATAKLAEASQAADESERARKILESKGLADEERMDALENQLKEARFMAEEADKKYDEVARKLAMVEADLERAEERAETGESKIVELEEELRVVGNNLKSLEVSEEKANLREEEYKQQIKTLNTRLKEAEARAEFAERSVQKLQKEVDRLEDELVHEKEKYKYICDDLDMTFTELIGN | – | – | 4 | 30 | 0 | 0 | Little or no response | – | – | 0 | 0 | 0 | – | – | – | – | – | 0.0 |
| Bla g 2: German Cockroach allergen Bla g 2 (protein, listed as Blattella germanica) MIGLKLVTVLFAVATITHAAELQRVPLYKLVHVFINTQYAGITKIGNQNFLTVFDSTSCNVVVASQECVGGACVCPNLQKYEKLKPKYISDGNVQVKFFDTGSAVGRGIEDSLTISNLTTSQQDIVLADELSQEVCILSADVVVGIAAPGCPNALKGKTVLENFVEENLIAPVFSIHHARFQDGEHFGEIIFGGSDWKYVDGEFTYVPLVGDDSWKFRLDGVKIGDTTVAPAGTQAIIDTSKAIIVGPKAYVNPINEAIGCVVEKTTTRRICKLDCSKIPSLPDVTFVINGRNFNISSQYYIQQNGNLCYSGFQPCGHSDHFFIGDFFVDHYYSEFNWENKTMGFGRSVESV | 24 | 8 | 7 | 24 | 2 | 1 | Little or no response; also recorded: responses were detected only for IFN-γ, and not for IL-5 | 9% | 3 | 1553 | 0 | 1553 | – | – | – | – | <0.01 | 6.4 |
| Bla g 4: German Cockroach allergen Bla g 4 (protein, listed as Blattella germanica) AVLALCATDTLANEDCFRHESLVPNLDYERFRGSWIIAAGTSEALTQYKCWIDRFSYDDALVSKYTDSQGKNRTTIRGRTKFEGNKFTIDYNDKGKAFSAPYSVLATDYENYAIVEGCPAAANGHVIYVQIRFSVRRFHPKLGDKEMIQHYTLDQVNQHKKAIEEDLKHFNLKYEDLHSTCH | 12 | 4 | 4 | 30 | 0 | 0 | Little or no response | 0 (0) % | 0 (0) | 0 | 0 | 0 | – | – | – | – | – | 0.0 |
| Bla g 1: German Cockroach (Blattella germanica) allergen Bla g 1 (protein, listed as Blattella germanica) NAIEFLNNIHDLLGIPHIPVTARKHHRRGVGITGLIDDIIAILPVDDLYALFQEKLETSPEFKALYDAIRSPEFQSIVGTLEAMPEYQNLIQKLKDKGVDVDHIIELIHQIFNIVRDTRGLPEDLQDFLALIPTDQVLAIAADYLANDAEVKAAVEYLKSDEFETIVVTVDSLPEFKNFLNFLQTNGLNAIEFLNNIHDLLGIPHIPVTGRKHLRRGVGITGLIDDIIAILPVDDLYALFQEKLETSPEFKALYDAIRSPEFQSIVETLKAMPEYQSLIQKLKDKGVDVDHIIELIHQIFNIVRDTRGLPEDLQDFLALIPIDQILAIAADYLANDAEVQAAVEYLKSDEFETIVVTVDSLPEFKNFLNFLQTNGLNAIEFINNIHDLLGIPHIPATGRKHVRRGVGINGLIDDVIAILPVDELYALFQEKLESSPEFKALYDAIRSPEFQSIVQTLKAMPEYQDLIQRLKDKGVDVDHFIELIKKLFGLSH | 12 | 4 | 3 | 27 | 3 | 1 | – | 12% | 4 | 890 | 1083 | 1973 | – | – | – | – | 1.22 | 8.1 |
